Patent US12427188B2, “Pyocyanine demethylases and related phenazine degrading agents compositions, methods and systems for interfering with viability of bacteria” (priority 2020, dated 2025)

Legend:
Pseudomonas aeruginosa = experiment: Crystal violet biofilm assay; type: cell-based; details: 24 h incubation, protein added from the beginning
Protocol: Crystal violet assay. Pseudomonas aeruginosa grown overnight in LB were inoculated (1.5%, v/v) and grown for 24 h at 37° C. in 96-well round bottom plates in minimal medium (100 μL) with arginine (40 mM) as the sole carbon source. PodA was added with cells simultaneously and was present during growth and biofilm development. Planktonic cells were removed and attached cells were quantified with crystal violet staining (125 μL. 0.1% w/v), followed by washes with water and de-staining with an acetic acid (30%, v/v) mixture in water. Crystal violet was measured using a SpectraMax® M3 Microplate Reader (Molecular Devices) at an absorbance of 550 nm. Details of procedure were published previously (28)[43].

[1] = Protein yield of PodA variants purified from inclusion bodies of overexpression culture; details: purified from inclusion bodies, per L of E. coli overexpression culture
Protocol: Protein overproduction and purification of soluble and inclusion body fractions. Plasmids coding for proteins of interest were transformed into E. coli BL21 […]. […]. Cultures were grown at 37° C. with shaking to an optical density of 0.4 (OD600 nm) and plasmid expression was induced with IPTG (50 μM) and shaken overnight at 16° C. Cells were harvested by centrifugation at 5,000×g for 10 min in a Beckman Coulter Avanti J-20 XOI refrigerated centrifuge using a JLA-8.1000 rotor at 4° C. Cell pellets were stored at −80° C. until used.
For purification of PodA from inclusion bodies, the pellets remaining following lysis and centrifugation at 40,000×g were resuspended in 20 mL of detergent buffer [50 mM HEPES (pH 7.5) and 1% Triton-X (v/v)] using a Bio-gen PRO200 cell homogenizer (PRO Scientific). Sample was spun for 15 min at 40,000×g at 4° C. in a Beckman Coulter Avanti centrifuge with a JA-25.50 rotor. Supernatant was discarded and the remaining cell pellet was resuspended in 5 mL of buffer [50 mM HEPES (pH 7.5), 500 mM NaCl] using a cell homogenizer, supplemented with lysozyme (200 μg mL^−1), and incubated for 10 min. Volume was increased to 20 mL with HEPES (50 mM, pH 7) and sample was spun for 40,000×g at 4° C. for 15 min. Supernatant was discarded and pellet was homogenized in 10 mL of denaturing buffer 50 mM HEPES (pH 7.5), 500 mM NaCl, and 8M urea) and incubating rocking overnight. The sample was spun at for 40,000×g at 25° C. for 30 min and supernatant was incubated with 1 mL HisPur Ni-NTA resin (Thermo Fisher Scientific) on a rocking platform for 10 min. Beads were allowed to settle without shaking, supernatant was discarded, and resin was pipetted into glass gravity columns. Resin was washed with 15 mL of denaturing buffer, followed by an elution with denaturing buffer supplemented with imidazole (500 mM). Fractions were analyzed by SDS-PAGE and those containing protein were combined into SnakeSkin 3.5 K MWCO dialysis tubing (Thermo Fisher Scientific). Urea was slowly dialyzed out in HEPES (50 mM, pH 7.5) and NaCl (500 mM) by lowing urea concentrations by 1 M increments. Each step was dialyzed at RT for 30 min. Protein was dialyzed in HEPES (50 mM, pH 7.5), NaCl (500 mM), and imidazole (20 mM) overnight at 4° C. The following day, protein was cleaved for 3 h at 25° C. with TEV protease (1:50 mg:mg ratio of TEV to PodA). The sample was applied to a HisPur gravity column and cleaved protein in the flow thru was confirmed by SDS-PAGE. Cleaved PodA protein was then dialyzed for storage for 3 h at 4° C. in HEPES (50 mM pH 7.5), NaCl (250 mM) and finally in HEPES (50 mM, pH 7.5), NaCl (100 mM), and glycerol (20%, v/v). Protein concentration was established on a NanoDrop™ using the extinction coefficient and MW of each protein. Protein was drop frozen in LN2 and stored at −80° C. until use.

[2] = tested on: P. aeruginosa strain PA14; experiment: PodA and tobramycin liquid (planktonic) synergy experiments; type: cell-based, Pseudomonas aeruginosa; details: LB; PodA10 5 μM; compared to individual antibiotic controls
Protocol: Pseudomonas aeruginosa PodA and tobramycin liquid synergy experiments. For planktonic synergy experiments, starter cultures were grown 24 h at 37° C. shaking in LB. Stationary phase cultures (usually between OD500 4-6) were aliquoted (100 μL) into 96-well clear bottom flat well plates (VWR). Antibiotics and PodA were diluted into stock concentrations to pipette 5 μL antibiotic and 2 μL PodA per well. Antibiotics were diluted into water and PodA was diluted into 50 mM HEPES (pH 7.5). Plates were incubated in a humidity Tupperware chamber lined with wet paper towel at 37° C. for 10 h. After incubation, wells were pipetted to resuspend, and each well was diluted 1:10 into fresh LB. From that mixture, 10 μL of diluted cells were pipetted into 90 μL fresh LB in 96-well flat bottom plates. Mineral Oil, light (65 μL undiluted, Sigma-Aldrich) was pipetted onto top of cultures to prevent dehydration and allow for oxygen diffusion. Microtiter plates were incubated at 37° C. inside a temperature-controlled chamber of a BioTek Synergy 4 plate reader. […] Cells from each 10 μL drips dilution were counted if colonies were between 10-100.
PodA10 and tobramycin cell treatments (same samples from FIG. 8) were diluted in series and dilutions were plated onto LB agar. Cells were counted if a dilution contained 10-100 colonies. […]

B1: PodA10: Designed PodA41-162 variant: A53N, I73T, A87V, M99V, A129T; SEQ ID NO: 4 (protein)
chain: MVTMTLDVKNDQVNKHDFGKPGMDVGDMDIFSDTLSVDGKQVGYDGGVCFFTNVTPDNPVTYCELTIHLDAGEIFARSLTPATLAPFTMTITGGTGEYANSKGELTVSGVATPDEKYELKLTK
Pseudomonas aeruginosa
  biofilm attachment (crystal violet): biofilm attachment defect that was comparable to that achieved by WT PodA41-162
[1]
  Yield: 5.92 mg/L^−1
[2]
  cell viability (CFUs): did not increase cell death
